Data as given in patent US20260184786A1 (LINDIS BIOTECH, published 2026).
Substitutions are numbered along the chain they refer to.

B1: VH_V2_VL_V4 (antibody, V domains shown)
VH: EVQLVESGGGLVQPGRSLRLSCAASGFTFNNYWMSWVRQAPGKGLEWVSAITKTGGSTYYPDSVKGRFTISRDNSKSTLYLQMNSLRAEDTATYYCTREYYYDPYIDYWGQGVLVTVSS
VL: QFALTQPRSVSGSLGQSVTLSCTRTTGNIGSNYVNWYQQHEGKAPKTMIYRDDKRPSGVPDRFSGSIDRSSNTASLTISGVQAEDEADYYCQSYSSGINIFGGGTKLTVL
notes: also called HV2-LV4
B2: VH_V1_VL_V4 (antibody, V domains shown)
VH: B1 VH with R16G, P61A, S77N, T93V, V113T
VL: B1 VL
notes: also called HV1-LV4
B3: VH_V3_VL_V4 (antibody, V domains shown)
VH: B1 VH with S49A, A50S, S75A, A88S
VL: B1 VL
notes: also called HV3-LV4
B4: VH_V4_VL_V4 (antibody, V domains shown)
VH: B1 VH with R16G, S35T, V37I, S49A, A50S, T93V, V113T
VL: B1 VL
notes: also called HV4-LV4
B5: C3002HC-LV4 (antibody, V domains shown)
VH: EVQLVESGGGLVQPGGSLRLSCAASGFTFNNYWMTWIRQAPGKGLEWVASITKTGGSTYYPDSVKGRFTISRDNAKNSLYLQMNSLRAEDTAVYYCTREYYYDPYIDYWGQGTMVTVSS
VL: B1 VL
B6: C3002-2-HC-LV4 (antibody, V domains shown)
VH: B5 VH with V93T, T113V
VL: B1 VL
B7: VH_V2_VL_V2 (antibody, V domains shown)
VH: B1 VH
VL: QFALTQPRSVSGNLGSSVKISCKRTTGNIGSNYVNWYQQHEGKAPTTMIYRDDKRPDGVPDRFSGSKDRSGNTALLTINNLQTEDEADYYCQSYSSGINIFGGGTKLTVL
notes: also called HV2-LV2
B8: VH_V3_VL_V2 (antibody, V domains shown)
VH: B1 VH with S49A, A50S, S75A, A88S
VL: B7 VL
notes: also called HV3-LV2
B9: VH_V3_VL_V1 (antibody, V domains shown)
VH: B1 VH with S49A, A50S, S75A, A88S
VL: QSALTQPRSVSGSPGQSVTISCTGTTGNIGSNYVSWYQQHPGKAPKLMIYRDDKRPSGVPDRFSGSKSGNTASLTISGLQAEDEADYYCQSYSSGINIFGGGTKLTVL
notes: also called HV3-LV1
B10: VH_V4_VL_V1 (antibody, V domains shown)
VH: B5 VH with A75S, N77S, S78T, M114L
VL: B9 VL
notes: also called HV4-LV1

Assays:
CD3 on Jurkat cells = biological target: T1, CD3 on Jurkat cells (human, UniProt P07766;P09693;P04234); assay: flow cytometry on Jurkat cells, FITC-labelled secondary antibody, MFI (Example 3)
T1 construct: on the surface of Jurkat cells
Description: The Jurkat cells were adjusted to a concentration of 4×10⁶ cells/ml with PBS, and the cell suspension (50 μl/well) and different concentrations of CD3 antibodies (50 μl/well) were sequentially added to a U-shaped 96-well plate and mixed evenly to achieve final antibody concentrations of […]. The cells were incubated in a 4° C. refrigerator for 1.5 h. After the incubation was completed, the plate was centrifuged (300 g, 5 min), then the supernatant was removed and the residue was washed with PBS (200 μl/well). Finally, FITC-conjugated AffiniPure Rat Anti-Mouse IgG (H+L) was added for staining, and flow cytometry was used for analysis and quantification.

Human CD3E & CD3G [1] = biological target: T2, Human CD3E & CD3G (human, UniProt P07766;P09693); assay: ELISA on plate-coated CD3E & CD3G heterodimer protein (Example 2); 95% CI 25,03 to 66,53 ng/ml, R squared 0.9718
T2 construct: recombinant, tag given as Lama Fc; also called CD3E & CD3G heterodimer protein; CD3E/G antigen
Description: (§1) An ELISA plate was coated with CD3E & CD3G heterodimer protein (as shown in FIG. 3) at 100 ng/well at 4° C. overnight. The next day, the plate was blocked with a blocking solution (3% BSA in 1×PBS) for 2 h, washed with a washing solution and drained. The plate was then added with gradiently diluted humanized CD3 antibodies, and incubated at 37° C. for 1 h. The reaction solution was discarded, and the plate was washed and drained. The plate was then added with diluted detection antibody (THE™ His Tag Antibody [HRP]) at 100 μL per well and incubated at 37° C. for 1 h. The detection antibody was discarded, and the plate was washed and drained. The plate was then added with a single-component TMB color developing solution returned to room temperature at 100 μL per well, and the color development was performed at 37° C. for 10 min. After the color was developed, a stop solution was added to the plate at 100 μL per well to terminate the color development reaction. The absorbance was read at 450 nm using a microplate reader.

Human CD3E & CD3G [2] = biological target: T2, Human CD3E & CD3G; assay: ELISA on plate-coated CD3E & CD3G heterodimer protein (Example 2); 95% CI 8,947 to 24,24 ng/ml, R squared 0.9587
Description: as §1

Human CD3E & CD3G [3] = biological target: T2, Human CD3E & CD3G; assay: ELISA on plate-coated CD3E & CD3G heterodimer protein (Example 2); 95% CI 20,94 to 55,12 ng/ml, R squared 0.9704
Description: as §1

Human CD3E & CD3G [4] = biological target: T2, Human CD3E & CD3G; assay: ELISA on plate-coated CD3E & CD3G heterodimer protein (Example 2); 95% CI 23,44 to 39,91 ng/ml, R squared 0.9911
Description: as §1

Human CD3E & CD3G [5] = biological target: T2, Human CD3E & CD3G; assay: ELISA, plate coated with CD3E & CD3G heterodimer protein (100 ng/well), anti-His tag HRP detection (Example 2)
Description: as §1

T2 sequence (P07766 23-126 limits assumed, chain 1 of 2): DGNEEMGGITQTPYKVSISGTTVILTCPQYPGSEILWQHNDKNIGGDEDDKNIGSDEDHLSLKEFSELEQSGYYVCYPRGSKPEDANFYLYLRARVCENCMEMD
T2 sequence (P09693 23-116 limits assumed, chain 2 of 2): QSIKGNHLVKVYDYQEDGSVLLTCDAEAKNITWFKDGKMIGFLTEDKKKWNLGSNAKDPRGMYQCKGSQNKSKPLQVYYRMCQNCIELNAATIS
T1 sequence (P07766 23-207, chain 1 of 3): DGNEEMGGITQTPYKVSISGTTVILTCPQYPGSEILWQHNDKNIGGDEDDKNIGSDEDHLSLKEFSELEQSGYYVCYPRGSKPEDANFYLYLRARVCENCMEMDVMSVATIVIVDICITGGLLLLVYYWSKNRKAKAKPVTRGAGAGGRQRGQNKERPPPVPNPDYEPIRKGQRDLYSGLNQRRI
T1 sequence (P09693 23-182, chain 2 of 3): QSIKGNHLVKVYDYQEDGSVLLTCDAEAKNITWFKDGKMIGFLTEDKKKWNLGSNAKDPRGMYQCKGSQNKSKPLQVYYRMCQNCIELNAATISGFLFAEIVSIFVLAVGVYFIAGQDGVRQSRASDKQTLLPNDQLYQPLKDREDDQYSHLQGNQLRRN
T1 sequence (P04234 22-171, chain 3 of 3): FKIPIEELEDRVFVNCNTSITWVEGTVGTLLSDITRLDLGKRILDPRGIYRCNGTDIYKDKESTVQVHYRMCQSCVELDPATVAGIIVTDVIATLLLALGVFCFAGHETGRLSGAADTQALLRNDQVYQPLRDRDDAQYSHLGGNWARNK

Row | Binder | EC50 (read off the curve) (CD3 on Jurkat cells) [µg/mL] | binding result (Human CD3E & CD3G [5]) | other results
1 | B1 | ~0.05 | – | EC50 (Human CD3E & CD3G [1]): 0.0405 µg/mL
2 | B2 | ~0.04 | – | EC50 (Human CD3E & CD3G [2]): 0.0148 µg/mL
3 | B3 | ~0.04 | – | EC50 (Human CD3E & CD3G [3]): 0.0337 µg/mL
4 | B4 | ~0.04 | – | EC50 (Human CD3E & CD3G [4]): 0.0305 µg/mL
5 | B5 | ~0.05 | – | –
6 | B6 | ~0.04 | – | –
7 | B7 | – | no binding (tested: 10 µg/ml) | –
8 | B8 | – | no binding (tested: 10 µg/ml) | –
9 | B9 | – | no binding (tested: 10 µg/ml) | –
10 | B10 | – | no binding (tested: 10 µg/ml) | –
